Measured values from PMC4889933 (Nucleic Acids Research, 2016).

B1: KuΔexCter, Ku_(Bsub) truncated of the extended Cter (M18 to P277 of NP_389224.1), N-terminal His6 (domain or fragment, B. subtilis 168, UniProt O34859 18-277, looked up)
chain: MHTMWKGSISFGLVNIPIKLYAATEDKDIKLRSLHKEDHAPIKYEKVCTNCEKTLSPDEIVKGYEYVKGKYVVLTDEDLKSLKQEHEEKAVEIVDFVQLQEIDPIYFNRSYFVGPGDNGTKAYTLLREALRSTGKIGIANMTIRSKQQLAILRVYENCIVMESIHYPDEVRSAAQVPGVPDQSNVNDKELQTAITLIDELTAKFEPEKYEDTYRQALLQRVNDKLENKETAVTPDKAPPREDVIDLVSALQASIDRTRRP
B2: Ku core, Ku_(Bsub) truncated of the entire C-terminal domain (M18 to P256 of NP_389224.1), N-terminal His6 (domain or fragment, B. subtilis 168, UniProt O34859 18-256, looked up)
chain: MHTMWKGSISFGLVNIPIKLYAATEDKDIKLRSLHKEDHAPIKYEKVCTNCEKTLSPDEIVKGYEYVKGKYVVLTDEDLKSLKQEHEEKAVEIVDFVQLQEIDPIYFNRSYFVGPGDNGTKAYTLLREALRSTGKIGIANMTIRSKQQLAILRVYENCIVMESIHYPDEVRSAAQVPGVPDQSNVNDKELQTAITLIDELTAKFEPEKYEDTYRQALLQRVNDKLENKETAVTPDKAPP

Assays:
cross-linking = biological target: the molecule itself; assay: cross-linking
[1] = biological target: T1, LigD protein of B. subtilis (LigD_(Bsub)), C-terminal His6 (B. subtilis, UniProt O34398 1-611); assay: SPR
T1 sequence (looked up): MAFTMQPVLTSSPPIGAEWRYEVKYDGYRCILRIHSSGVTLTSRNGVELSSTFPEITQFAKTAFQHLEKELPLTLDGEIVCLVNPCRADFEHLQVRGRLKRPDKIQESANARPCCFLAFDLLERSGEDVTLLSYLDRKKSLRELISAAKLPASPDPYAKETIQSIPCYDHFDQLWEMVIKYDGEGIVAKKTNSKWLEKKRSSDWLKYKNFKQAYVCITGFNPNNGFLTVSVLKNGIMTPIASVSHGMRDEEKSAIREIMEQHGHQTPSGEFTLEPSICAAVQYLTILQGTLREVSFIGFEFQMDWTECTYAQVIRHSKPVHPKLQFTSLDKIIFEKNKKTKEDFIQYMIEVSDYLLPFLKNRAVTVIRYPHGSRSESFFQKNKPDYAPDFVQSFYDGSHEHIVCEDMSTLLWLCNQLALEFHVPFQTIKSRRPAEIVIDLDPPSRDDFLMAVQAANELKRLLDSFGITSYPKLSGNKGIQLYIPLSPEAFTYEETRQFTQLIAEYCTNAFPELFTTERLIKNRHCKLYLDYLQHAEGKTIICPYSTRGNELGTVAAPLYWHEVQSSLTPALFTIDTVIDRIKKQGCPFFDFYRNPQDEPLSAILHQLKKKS

Binder | stoichiometry N (cross-linking) | Kd [1]
B1 | 2 | 11 µM
B2 | 2 | –
